The values that follow come from PMC3161730 (2012).

Like-named read-outs stand apart in the source and are kept apart here.

Holding throughout (assay): plate-based fluorescence binding assay
In assay [1] the target is T1, TrkB (Rattus norvegicus, UniProt Q63604).
T1 chain: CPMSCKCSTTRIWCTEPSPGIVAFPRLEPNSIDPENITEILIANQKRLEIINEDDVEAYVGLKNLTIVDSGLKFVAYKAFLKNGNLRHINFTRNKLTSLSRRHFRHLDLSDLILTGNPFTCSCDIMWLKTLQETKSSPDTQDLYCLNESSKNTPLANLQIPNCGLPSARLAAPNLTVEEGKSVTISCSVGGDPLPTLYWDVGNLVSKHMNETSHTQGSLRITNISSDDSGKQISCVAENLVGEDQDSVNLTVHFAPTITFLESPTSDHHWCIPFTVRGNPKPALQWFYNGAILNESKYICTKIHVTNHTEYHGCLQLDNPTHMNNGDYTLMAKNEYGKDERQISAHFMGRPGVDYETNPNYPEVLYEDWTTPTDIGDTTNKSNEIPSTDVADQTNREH

Assay [2] has as its target T1, TrkB.
Assay [3] has as its target T1, TrkB.
Assay [4] addresses T1, TrkB.

B1: BDNF (protein)
chain: HSDPARRGELSVCDSISEWVTAADKKTAVDMSGGTVTVLEKVPVSKGQLKQYFYETKCNPMGYTKEGCRGIDKRHWNSQCRTTQSYVRALTMDSKKRIGWRFIRIDTSCVCTLTIKRGR
As to B1, the Kd was 3.37 nM in assay [1], 0.00179 nM in assay [2], 0.53 nM in assay [3] and 0.00011 nM in assay [4].

As a reminder, the Kd is the equilibrium constant for the complex coming apart. A higher Kd goes with weaker binding.
